# Data from US20220249685A1, “ANTI-MESOTHELIN ANTIBODIES AND IMMUNOCONJUGATES THEREOF” (Silverback Therapeutics, Inc., priority 2019, published 2022).
# Legend:
# [1] = Tm of purified antibodies (Table 1); format: physicochemical; conditions: purified antibody
# Experimental: Six humanized heavy chains were co-transfected with 5 humanized light chains into the ExpiCHO expression system in a 30mL culture. The supernatant was analyzed via Octet to determine off rates and any that retained binding and contained less mouse sequence, were purified and further characterized. Clones 6 and 37 were selected for further optimization. An additional mutation in CDRH2, G55A, was introduced to reduce chemical modification of the neighboring Asparagine (N) residue. These humanized sequences are represented in SEQ ID NOs. 1-15.
# [2] = system: huPBMCs in the presence of HEK-293 cells transfected with human MSLN; test: TNFα production by huPBMCs with HEK-293 cells transfected with human MSLN; format: cell-based; conditions: overnight, AlphaLISA
# Experimental: Human Whole Blood was obtained from Bloodworks Northwest and collected in 10mL EDTA tubes. Human PBMCs were then isolated from the whole blood by Ficoll gradient centrifugation and resuspended in assay media (RPMI-1640 Medium supplemented with 10% Fetal Bovine Serum, 1 mM Sodium Pyruvate, 1× GlutaMAX-1, 1× Non-Essential Amino Acids, 10mM HEPES and 0.5% Penicillin/Streptomycin; all from Gibco). Tumor cells were removed from tissue culture flasks with HyQTASE (Hyclone), washed twice and resuspended in assay media.
# Human PBMCs isolated as described above were resuspended in assay media, and plated in 96-well flat bottom microtiter plates (125,000/well). MSLN-expressing HEK-293cells were then added (25,000/well) along with titrating concentrations of conjugated or unconjugated antibodies. Mock transfected HEK-293 cells were used as a negative control. After overnight culture, supernatants were harvested, and TNFα levels were determined by AlphaLISA.
# [3] = Analytical hydrophobic interaction chromatography (HIC) profile, incl. after 40° C. stress; format: physicochemical; conditions: TSKgel Butyl-NPR, ammonium sulfate
substance,measurement,setting,value
"SS1: chimeric monoclonal anti-mesothelin antibody IgG/K; VH SEQ ID NO: 25, VL SEQ ID NO: 26",Tm ° C.,[1],69 °C
same,TNFα production from huPBMCs,[2],did not stimulate TNFα production
same,profile on an analytical HIC column,[3],multiple variant species
